Measurements from IntAct's records for PubMed 16498409.

B1: ADP-ribosylation factor 1 (Saccharomyces cerevisiae), P11076 (parent)
chain: MGLFASKLFSNLFGNKEMRILMVGLDGAGKTTVLYKLKLGEVITTIPTIGFNVETVQYKNISFTVWDVGGQDRIRSLWRHYYRNTEGVIFVVDSNDRSRIGEAREVMQRMLNEDELRNAAWLVFANKQDLPEAMSAAEITEKLGLHSIRNRPWFIQATCATSGEGLYEGLEWLSNSLKNST
partner: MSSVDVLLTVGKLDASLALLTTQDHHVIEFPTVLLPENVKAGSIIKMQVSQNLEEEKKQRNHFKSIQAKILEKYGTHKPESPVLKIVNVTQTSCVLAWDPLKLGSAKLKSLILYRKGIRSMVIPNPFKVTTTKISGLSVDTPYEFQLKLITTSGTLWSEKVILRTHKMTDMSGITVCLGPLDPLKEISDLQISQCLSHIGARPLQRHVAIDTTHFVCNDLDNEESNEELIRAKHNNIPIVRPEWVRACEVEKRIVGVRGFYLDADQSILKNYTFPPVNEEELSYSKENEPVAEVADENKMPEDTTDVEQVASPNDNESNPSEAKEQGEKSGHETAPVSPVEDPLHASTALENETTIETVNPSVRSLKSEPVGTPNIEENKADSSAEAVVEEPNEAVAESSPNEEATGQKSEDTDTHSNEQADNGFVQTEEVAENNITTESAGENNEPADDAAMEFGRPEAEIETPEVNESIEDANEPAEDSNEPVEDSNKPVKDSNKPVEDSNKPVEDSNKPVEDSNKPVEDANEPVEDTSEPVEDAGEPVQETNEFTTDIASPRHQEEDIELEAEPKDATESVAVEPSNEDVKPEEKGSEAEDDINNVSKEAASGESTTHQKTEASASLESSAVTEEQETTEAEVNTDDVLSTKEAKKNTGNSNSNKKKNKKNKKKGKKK
B2: ADP-ribosylation factor 1 (Saccharomyces cerevisiae), P11076 (parent)
chain: B1 chain

Variants of: B1
Conditions: with chs5_yeast CHS5, Q12114

Q71L was tested. Which “effect of a mutation on the interaction” value did it give?
The value was “increasing interaction”.

Variants of: B2
Conditions: with glo3_yeast GLO3, P38682
Sequence of glo3_yeast GLO3, P38682 (P38682 whole entry): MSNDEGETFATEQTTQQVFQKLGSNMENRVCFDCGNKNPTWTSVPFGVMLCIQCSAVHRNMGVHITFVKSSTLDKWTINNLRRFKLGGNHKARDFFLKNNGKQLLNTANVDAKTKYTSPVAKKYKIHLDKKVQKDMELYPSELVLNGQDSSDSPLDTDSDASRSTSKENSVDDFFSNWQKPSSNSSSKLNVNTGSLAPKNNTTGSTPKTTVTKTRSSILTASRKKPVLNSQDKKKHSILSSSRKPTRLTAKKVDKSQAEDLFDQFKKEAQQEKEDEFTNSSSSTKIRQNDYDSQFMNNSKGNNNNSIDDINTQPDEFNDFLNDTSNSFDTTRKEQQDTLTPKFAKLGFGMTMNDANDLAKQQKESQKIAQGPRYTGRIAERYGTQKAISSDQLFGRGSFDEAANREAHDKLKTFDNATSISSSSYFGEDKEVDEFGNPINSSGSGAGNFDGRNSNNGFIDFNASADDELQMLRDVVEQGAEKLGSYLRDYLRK

Which “effect of a mutation on the interaction” value does the source give for Q71L here?
Its value is “increasing interaction”.
